Measured values as given in patent publication US10583167B2, “Mammalian glucosidase inhibitors, methods for their use and pharmaceutical compositions thereof” (THE UNIVERSITY OF BRITISH COLUMBIA, priority 2015, dated 2020).
“Also recorded” adds a separate entry of the source. Bridges are numbered along the chain shown (N, C = ends).

Legend:
mammalian alpha-amylase = molecular target: T1, mammalian alpha-amylase (Homo sapiens, UniProt P04746); assay: Inhibitory activity of truncated and fusion peptides; assay type: biochemical; conditions: for Inhibitory Activity: truncated peptides
T1 sequence (P04746 16-511): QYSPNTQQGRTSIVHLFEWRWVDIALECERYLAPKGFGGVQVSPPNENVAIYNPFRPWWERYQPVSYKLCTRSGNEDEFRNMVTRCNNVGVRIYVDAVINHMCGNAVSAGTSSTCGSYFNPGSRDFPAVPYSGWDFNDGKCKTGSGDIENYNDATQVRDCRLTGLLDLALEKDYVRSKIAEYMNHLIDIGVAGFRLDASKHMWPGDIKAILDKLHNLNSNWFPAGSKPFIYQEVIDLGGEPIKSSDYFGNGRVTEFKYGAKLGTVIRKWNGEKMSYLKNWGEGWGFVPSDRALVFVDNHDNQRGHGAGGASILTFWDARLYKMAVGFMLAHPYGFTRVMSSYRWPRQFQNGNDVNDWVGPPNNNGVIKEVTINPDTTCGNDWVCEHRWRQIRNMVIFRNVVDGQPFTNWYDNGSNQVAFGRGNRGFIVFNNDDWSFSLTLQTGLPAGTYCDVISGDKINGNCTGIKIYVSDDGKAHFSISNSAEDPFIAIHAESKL

[1] = system: trypsin, chymotrypsin, proteinase K, and Lys-C
[2] = molecular target: T2, human pancreatic α-amylase (HPA) (Homo sapiens, UniProt P04746); assay: Kinetic analysis of HPA inhibition (CNP-G3 hydrolysis, Morrison / Michaelis-Menten); assay type: biochemical; conditions: for Ki / inhibition constant estimated in preliminary tests: preliminary inhibitory studies with remaining material
T2 construct: made in house; host or cells: Pichia pastoris
T2 sequence (P04746 16-511): T1 sequence (P04746 16-511)
Procedure: A detailed protocol of this expression can be found in the work done by Rydberg et al. (39) Expression was carried out in Pichia pastoris. Colonies were grown in 600 mL BMGY media at 30° C. 200 RPM. 20 mL of the overnight culture was added to 600 mL BMGY. After 16 hours the cells were transferred to 300 mL BMMY. After one day 2 mL of 50% methanol was added. The culture was left overnight. The culture supernatant was collected and purified via Phenyl Sepharose™ and Hitrap Q™ columns. Deglycosylation was performed with EndoF™.
Reactions were run with a final [CNPG3]=5 mM. […] Kiapp was then used to calculate Ki.
Given the low-nM estimate of Ki for the natural extract, kinetic analysis could not be pursued through standard Michaelis-Menten kinetics (22). In this study, inhibition constants below 50 nM were determined using the Morrison method: inhibition dose response curves at [S]=KM were constructed for varying enzyme concentrations (23, 24). The resulting data (FIG. 2A) was fit to the Morrison equation 1 to determine Ki,app, which could be converted to Ki through equation 2, which is the relationship between these values for competitive inhibition.

[3] = 11M HCl at 37° C. for four days, HPLC
Procedure: The sample was diluted and neutralized before desalting by C18 reverse phase chromatography. The peptide mixture was injected into an Agilent™ 6460 QQQ LC/MS mass spectrometer. Elution and MS/MS analysis was carried out over a 40-minute period. A script was written to predict all possible fragments for the helianthamide sequence in the event of random hydrolysis and was used to analyze the resulting MS and MS/MS peaks.
Intact peptide was incubated in 11M HCl at 37° C. for four days.

Almond β-glucosidase = assay: Inhibitory specificity: kinetic analysis; assay type: biochemical; conditions: up to 1 μM
Procedure: (§1) Assays were performed on a Varian Cary 300™ UV/Vis spectrophotometer. The release of 2-chloro-nitrophenol resulting from the amylase catalyzed hydrolysis of 2-chloro-p-nitrophenyl-α-D-maltotrioside was monitored at 400 nm. Reactions were run at 30° C. in 50 mM sodium phosphate, 100 mM sodium chloride (pH 7.0). Reactions were monitored over 5 minutes to measure the initial reaction rate. […] Reactions were run with a final [CNPG3]=5 mM. […] Up to 5 different enzyme concentrations were used, ranging from 1 nM to 10 nM. v/vo was plotted against [I] for each enzyme concentration to form a series of dose response curves. […] Kiapp was then used to calculate Ki. […] Details of this process can be found in the work done by Tarling et al. (33). After kinetic analysis with HPA, nine additional enzymes were tested against helianthamide. Concentrations of up to 1 μM of Helianthamide were used to assess for inhibition.
(§2) Inhibition of nine other glycosidases was explored (TABLE 4).

[4] = molecular target: T3, Green coffee bean α-galactosidase (Coffea arabica, UniProt Q42656); assay: Inhibitory specificity: kinetic analysis; assay type: biochemical; conditions: up to 1 μM
T3 construct: Green coffee bean α-galactosidase; from tissue; host or cells: green coffee beans
T3 sequence (Q42656 16-378): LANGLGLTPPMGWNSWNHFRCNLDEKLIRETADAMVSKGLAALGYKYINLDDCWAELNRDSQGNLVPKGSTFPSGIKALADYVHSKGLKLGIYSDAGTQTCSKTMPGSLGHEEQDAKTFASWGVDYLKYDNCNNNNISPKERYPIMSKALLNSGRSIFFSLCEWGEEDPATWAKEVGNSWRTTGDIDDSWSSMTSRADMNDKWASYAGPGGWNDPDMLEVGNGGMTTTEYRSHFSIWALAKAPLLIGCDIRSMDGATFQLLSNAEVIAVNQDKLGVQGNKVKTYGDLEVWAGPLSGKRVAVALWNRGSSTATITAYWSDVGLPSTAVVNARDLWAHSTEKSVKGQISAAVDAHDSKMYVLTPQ
Procedure: as §1, §2

[5] = molecular target: Bovine liver β-galactosidase; assay: Inhibitory specificity: kinetic analysis; assay type: biochemical; conditions: up to 1 μM
Procedure: as §1, §2

[6] = molecular target: Bacillus licheniformis α-amylase (Bacillus licheniformis, UniProt P06278); assay: Inhibitory specificity: kinetic analysis; assay type: biochemical; conditions: up to 1 μM
Sequence of Bacillus licheniformis α-amylase (P06278 30-512): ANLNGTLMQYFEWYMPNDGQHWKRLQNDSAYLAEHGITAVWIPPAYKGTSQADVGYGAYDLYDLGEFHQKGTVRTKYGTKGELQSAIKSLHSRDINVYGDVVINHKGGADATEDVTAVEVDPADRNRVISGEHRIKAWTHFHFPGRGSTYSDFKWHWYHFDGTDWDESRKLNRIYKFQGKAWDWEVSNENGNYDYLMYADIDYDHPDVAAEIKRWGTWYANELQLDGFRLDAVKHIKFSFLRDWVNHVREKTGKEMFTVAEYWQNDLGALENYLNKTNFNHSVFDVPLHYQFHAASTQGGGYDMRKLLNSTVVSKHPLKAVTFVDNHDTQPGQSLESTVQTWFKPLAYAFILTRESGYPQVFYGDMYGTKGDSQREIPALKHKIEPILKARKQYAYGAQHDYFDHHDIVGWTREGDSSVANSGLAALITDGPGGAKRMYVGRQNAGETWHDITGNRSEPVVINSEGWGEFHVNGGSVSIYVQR
Procedure: as §1, §2

[7] = molecular target: Roseburia inulinivorans α-amylase A; assay: Inhibitory specificity: kinetic analysis; assay type: biochemical; conditions: up to 1 μM
Procedure: as §1, §2

[8] = molecular target: Human maltase-glucoamylase (Homo sapiens, UniProt O43451); assay: Inhibitory specificity: kinetic analysis; assay type: biochemical; conditions: up to 1 μM
Sequence of Human maltase-glucoamylase (O43451 whole entry): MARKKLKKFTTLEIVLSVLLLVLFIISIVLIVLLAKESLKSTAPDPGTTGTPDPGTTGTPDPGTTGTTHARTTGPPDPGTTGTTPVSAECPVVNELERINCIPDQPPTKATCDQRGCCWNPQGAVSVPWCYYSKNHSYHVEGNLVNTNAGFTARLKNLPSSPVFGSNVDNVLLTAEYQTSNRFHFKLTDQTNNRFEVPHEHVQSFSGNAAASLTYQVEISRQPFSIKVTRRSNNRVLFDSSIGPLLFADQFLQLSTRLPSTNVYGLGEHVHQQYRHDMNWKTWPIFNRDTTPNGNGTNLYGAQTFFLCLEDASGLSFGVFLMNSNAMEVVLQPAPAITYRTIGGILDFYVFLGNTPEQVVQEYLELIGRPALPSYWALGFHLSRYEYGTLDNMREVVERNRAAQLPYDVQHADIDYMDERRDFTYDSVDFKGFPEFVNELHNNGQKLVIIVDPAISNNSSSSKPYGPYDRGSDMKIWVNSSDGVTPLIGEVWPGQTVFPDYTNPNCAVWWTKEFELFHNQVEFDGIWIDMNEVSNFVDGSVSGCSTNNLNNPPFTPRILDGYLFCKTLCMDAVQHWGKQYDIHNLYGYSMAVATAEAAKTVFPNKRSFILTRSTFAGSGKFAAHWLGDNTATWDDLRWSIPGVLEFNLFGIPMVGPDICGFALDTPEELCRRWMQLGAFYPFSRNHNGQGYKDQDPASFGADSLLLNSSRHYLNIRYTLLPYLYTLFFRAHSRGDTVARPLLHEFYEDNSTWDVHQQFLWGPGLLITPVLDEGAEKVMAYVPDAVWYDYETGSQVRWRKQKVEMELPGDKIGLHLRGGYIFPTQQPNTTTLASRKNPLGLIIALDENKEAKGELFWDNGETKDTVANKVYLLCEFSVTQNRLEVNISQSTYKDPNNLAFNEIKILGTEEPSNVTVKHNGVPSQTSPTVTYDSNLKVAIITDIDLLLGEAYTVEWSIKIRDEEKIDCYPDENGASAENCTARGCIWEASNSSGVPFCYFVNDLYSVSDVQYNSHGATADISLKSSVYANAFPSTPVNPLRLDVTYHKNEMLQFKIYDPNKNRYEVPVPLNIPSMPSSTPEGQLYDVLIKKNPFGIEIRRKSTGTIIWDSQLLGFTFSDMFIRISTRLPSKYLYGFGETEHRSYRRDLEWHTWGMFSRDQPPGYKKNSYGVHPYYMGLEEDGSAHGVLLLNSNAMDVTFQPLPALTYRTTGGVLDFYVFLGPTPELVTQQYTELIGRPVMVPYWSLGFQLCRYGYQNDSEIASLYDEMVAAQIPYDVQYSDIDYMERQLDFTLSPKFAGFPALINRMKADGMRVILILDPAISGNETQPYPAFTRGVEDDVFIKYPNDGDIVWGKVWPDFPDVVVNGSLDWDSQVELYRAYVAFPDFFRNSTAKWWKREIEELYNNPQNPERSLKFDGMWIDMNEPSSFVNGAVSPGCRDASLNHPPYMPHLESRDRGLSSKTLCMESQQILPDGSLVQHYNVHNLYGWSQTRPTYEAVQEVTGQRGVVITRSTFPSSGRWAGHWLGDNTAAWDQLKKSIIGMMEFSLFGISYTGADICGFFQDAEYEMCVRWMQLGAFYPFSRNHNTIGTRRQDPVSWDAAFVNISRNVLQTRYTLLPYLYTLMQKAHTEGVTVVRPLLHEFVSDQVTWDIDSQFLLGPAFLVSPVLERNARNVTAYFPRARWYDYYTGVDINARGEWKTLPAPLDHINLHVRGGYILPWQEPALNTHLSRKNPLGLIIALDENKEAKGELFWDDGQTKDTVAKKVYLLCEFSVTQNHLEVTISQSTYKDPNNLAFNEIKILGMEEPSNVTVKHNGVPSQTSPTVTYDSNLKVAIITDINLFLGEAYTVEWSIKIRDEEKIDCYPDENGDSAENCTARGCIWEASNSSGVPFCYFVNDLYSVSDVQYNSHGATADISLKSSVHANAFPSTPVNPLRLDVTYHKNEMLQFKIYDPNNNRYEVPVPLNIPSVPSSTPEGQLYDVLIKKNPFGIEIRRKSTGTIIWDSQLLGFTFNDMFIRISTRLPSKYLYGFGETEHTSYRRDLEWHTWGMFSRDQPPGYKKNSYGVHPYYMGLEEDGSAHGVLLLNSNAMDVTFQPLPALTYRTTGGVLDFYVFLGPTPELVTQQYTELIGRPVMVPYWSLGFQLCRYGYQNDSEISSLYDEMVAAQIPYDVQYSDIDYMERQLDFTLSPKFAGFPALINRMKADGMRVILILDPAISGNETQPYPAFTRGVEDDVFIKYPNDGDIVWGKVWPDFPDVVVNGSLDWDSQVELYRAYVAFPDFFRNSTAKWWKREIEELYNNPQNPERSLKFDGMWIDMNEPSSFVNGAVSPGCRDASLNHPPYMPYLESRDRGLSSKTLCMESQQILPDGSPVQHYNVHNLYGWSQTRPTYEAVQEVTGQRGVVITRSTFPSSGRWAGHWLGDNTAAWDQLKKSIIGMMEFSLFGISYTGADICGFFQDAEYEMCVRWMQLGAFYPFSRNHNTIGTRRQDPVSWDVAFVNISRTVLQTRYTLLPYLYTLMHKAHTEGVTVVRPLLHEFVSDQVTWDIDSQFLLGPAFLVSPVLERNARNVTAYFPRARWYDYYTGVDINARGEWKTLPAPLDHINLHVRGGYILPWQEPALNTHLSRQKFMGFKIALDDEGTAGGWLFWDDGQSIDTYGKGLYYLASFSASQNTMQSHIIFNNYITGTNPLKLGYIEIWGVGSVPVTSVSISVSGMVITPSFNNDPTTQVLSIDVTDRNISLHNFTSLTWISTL
Procedure: as §1, §2

[9] = molecular target: Butyrivibrio fibrisolvens α-amylase B; assay: Inhibitory specificity: kinetic analysis; assay type: biochemical; conditions: up to 1 μM
Procedure: as §1, §2

Jack bean α-mannosidase = molecular target: T4, Jack bean α-mannosidase (Canavalia ensiformis, UniProt C0HJB3); assay: Inhibitory specificity: kinetic analysis; assay type: biochemical; conditions: up to 1 μM
T4 construct: Jack bean α-mannosidase; from tissue; host or cells: jack bean
T4 sequence (C0HJB3 1-981): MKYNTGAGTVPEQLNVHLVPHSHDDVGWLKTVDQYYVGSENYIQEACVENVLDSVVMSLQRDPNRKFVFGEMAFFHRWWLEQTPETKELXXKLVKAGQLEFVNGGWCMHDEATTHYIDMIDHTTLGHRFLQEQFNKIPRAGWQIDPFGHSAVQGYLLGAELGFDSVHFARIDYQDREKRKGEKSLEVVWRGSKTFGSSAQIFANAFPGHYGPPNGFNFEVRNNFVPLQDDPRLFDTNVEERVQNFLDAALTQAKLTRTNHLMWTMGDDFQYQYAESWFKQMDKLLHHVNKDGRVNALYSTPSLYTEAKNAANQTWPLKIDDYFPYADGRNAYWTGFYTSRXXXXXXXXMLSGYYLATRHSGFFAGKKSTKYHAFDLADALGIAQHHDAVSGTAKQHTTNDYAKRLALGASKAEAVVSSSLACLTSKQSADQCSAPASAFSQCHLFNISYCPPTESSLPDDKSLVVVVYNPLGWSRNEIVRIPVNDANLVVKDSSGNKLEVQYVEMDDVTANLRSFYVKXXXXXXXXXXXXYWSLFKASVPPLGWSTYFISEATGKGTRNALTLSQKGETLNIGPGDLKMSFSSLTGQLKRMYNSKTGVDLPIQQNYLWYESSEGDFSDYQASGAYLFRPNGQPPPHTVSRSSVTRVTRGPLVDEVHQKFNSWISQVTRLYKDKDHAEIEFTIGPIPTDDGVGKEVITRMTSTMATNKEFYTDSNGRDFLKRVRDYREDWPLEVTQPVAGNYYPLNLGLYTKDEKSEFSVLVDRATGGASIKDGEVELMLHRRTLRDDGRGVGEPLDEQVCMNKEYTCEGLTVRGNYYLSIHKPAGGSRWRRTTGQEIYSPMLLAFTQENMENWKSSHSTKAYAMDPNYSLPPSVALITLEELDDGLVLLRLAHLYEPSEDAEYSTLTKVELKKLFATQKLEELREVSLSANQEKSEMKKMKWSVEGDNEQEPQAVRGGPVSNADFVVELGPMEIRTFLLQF
Procedure: as §1, §2

[10] = molecular target: Brewer's yeast α-glucosidase; assay: Inhibitory specificity: kinetic analysis; assay type: biochemical; conditions: up to 1 μM
Procedure: as §1, §2

[11] = molecular target: T2, human pancreatic α-amylase (HPA); conditions: from parallel screen; read-out: Ki against HPA; cited from earlier work

Q: With “Ac-CYIYHGVSGIC-NH2 (disulfide 1-11 (inferred); listed as Stichodactyla helianthus) [truncated peptide]” as the substance, how does the “Inhibitory Activity” value (mammalian alpha-amylase) read?
A: 30 µM

Q: What does the source list for “Ac-YIYH-NH2 (listed as Stichodactyla helianthus) [truncated peptide, Ac represents the acetyl functional group]”?
A: mammalian alpha-amylase inhibitory activity (in words) (mammalian alpha-amylase): did not have detectable; Inhibitory Activity (mammalian alpha-amylase): no inhibition detected

Q: With “Ac-YIYHGVSGI-NH2 (listed as Stichodactyla helianthus) [truncated peptide]” as the substance, how does the “Inhibitory Activity” value (mammalian alpha-amylase) read?
A: 25 µM

Q: For “ESGNSCYIYHGVSGICKASCAEDEKAMAGMGVCEGHLCCYKTPW (listed as Stichodactyla helianthus) [helianthamide, 44 amino acid peptide from the sea anemone Stichodactyla helianthus; natural, synthetic and recombinant forms]”, which resistance to proteolysis [1] is on record?
A: resistant to proteolysis

Q: And the “Ki / inhibition constant estimated in preliminary tests” value [2]?
A: low-nM

Q: And the “Ki / inhibition constant estimated in preliminary tests” value ([2]; listed as Helianthamide)?
A: low nanomolar; also recorded: low nano-molar

Q: And the “mode of HPA inhibition” value ([2]; preliminary tests, natural material)?
A: reversible competitive inhibition

Q: And the “intact peptide remaining after acid incubation” value [3]?
A: a large proportion of intact peptide remained

Q: And the Ki (Almond β-glucosidase)?
A: > 1000 nM

Q: And the Ki [4]?
A: > 1000 nM

Q: What about the Ki [5] of the same substance?
A: > 1000 nM

Q: What about the Ki [6] of the same substance?
A: > 1000 nM

Q: And the Ki [7]?
A: > 1000 nM

Q: What about the Ki [8] of the same substance?
A: > 1000 nM

Q: And the Ki [9]?
A: > 1000 nM

Q: And the Ki (Jack bean α-mannosidase)?
A: > 1000 nM

Q: What about the Ki [10] of the same substance?
A: > 1000 nM

Q: Which Ki [11] does the source give for Montbretin A here?
A: 8 nM
